According to article PMC10873344:

Columns and labels:
[1] = molecular target: mouse SEL1L S658P/F668Y-FLAG (mouse); assay: co-IP; anti-FLAG agarose IP from lysates of SEL1L-/- HEK293T cells transfected with SEL1L-FLAG variants, blots for endogenous partners; 150 mM NaCl, 0.2% NP-40, 0.1% Triton X-100, 25 mM Tris-HCl pH 7.5, overnight at 4 C
[2] = molecular target: SEL1L^S658P, endogenous mouse (homozygous KI liver) (mouse (endogenous in liver)); assay: co-IP; IP of endogenous SEL1L or HRD1 (home-made antibody, protein A agarose) from livers of 5-week-old WT, HET and KI mice; 150 mM NaCl, 1% NP-40, 25 mM Tris-HCl pH 7.5
[3] = molecular target: HRD1 (HMG-CoA reductase degradation 1), endogenous human, Q86TM6-3; assay: co-immunoprecipitation (FLAG-agarose IP, Western blot quantitation); details: SEL1L-/- HEK293T cells; n = 3; mean ± SEM; parent: est. 1.0; read off a plot
Sequence of HRD1 (HMG-CoA reductase degradation 1), endogenous human, Q86TM6-3 (Q86TM6 other isoform, or with tags, fused parts or gaps): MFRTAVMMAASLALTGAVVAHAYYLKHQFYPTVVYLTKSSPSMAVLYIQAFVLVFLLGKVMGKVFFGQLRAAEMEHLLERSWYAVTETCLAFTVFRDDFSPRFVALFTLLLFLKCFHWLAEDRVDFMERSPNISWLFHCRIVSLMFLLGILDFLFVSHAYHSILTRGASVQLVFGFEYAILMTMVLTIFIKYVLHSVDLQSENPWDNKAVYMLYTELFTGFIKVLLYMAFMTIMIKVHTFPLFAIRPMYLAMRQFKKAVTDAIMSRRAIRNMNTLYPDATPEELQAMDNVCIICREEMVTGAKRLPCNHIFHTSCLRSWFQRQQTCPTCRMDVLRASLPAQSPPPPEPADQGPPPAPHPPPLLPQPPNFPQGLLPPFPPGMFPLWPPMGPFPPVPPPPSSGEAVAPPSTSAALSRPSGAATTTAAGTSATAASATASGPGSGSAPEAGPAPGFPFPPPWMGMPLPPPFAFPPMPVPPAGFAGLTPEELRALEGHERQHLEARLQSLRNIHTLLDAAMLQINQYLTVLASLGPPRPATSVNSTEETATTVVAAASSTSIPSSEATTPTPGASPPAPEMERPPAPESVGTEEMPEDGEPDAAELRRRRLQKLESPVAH

[4] = molecular target: OS9 (Osteosarcoma amplified 9), endogenous human (UniProt Q13438); assay: as above; details: SEL1L-/- HEK293T cells; n = 3; mean ± SEM; parent: est. 1.0; read off a plot
Sequence of UniProt Q13438 (Q13438 26-667): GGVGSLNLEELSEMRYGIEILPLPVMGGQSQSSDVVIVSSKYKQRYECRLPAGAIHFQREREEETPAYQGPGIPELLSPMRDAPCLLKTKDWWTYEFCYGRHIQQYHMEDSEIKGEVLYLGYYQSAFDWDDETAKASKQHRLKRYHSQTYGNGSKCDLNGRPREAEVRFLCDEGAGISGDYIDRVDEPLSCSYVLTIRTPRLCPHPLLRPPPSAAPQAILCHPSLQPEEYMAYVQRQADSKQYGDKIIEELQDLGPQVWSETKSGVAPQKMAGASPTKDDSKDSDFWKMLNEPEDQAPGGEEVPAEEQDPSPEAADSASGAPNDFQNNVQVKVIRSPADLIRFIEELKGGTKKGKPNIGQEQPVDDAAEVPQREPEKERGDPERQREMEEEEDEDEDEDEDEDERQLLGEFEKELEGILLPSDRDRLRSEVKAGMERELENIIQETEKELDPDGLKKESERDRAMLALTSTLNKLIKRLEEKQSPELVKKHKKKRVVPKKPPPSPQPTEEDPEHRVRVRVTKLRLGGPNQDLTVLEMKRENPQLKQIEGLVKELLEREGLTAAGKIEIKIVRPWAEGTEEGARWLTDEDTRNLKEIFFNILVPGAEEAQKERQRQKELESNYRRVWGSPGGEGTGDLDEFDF

[5] = molecular target: HRD1 (HMG-CoA reductase degradation 1), endogenous human, Q86TM6-3; assay: as above; details: SEL1L-/- HEK293T cells; n = 3; mean ± SEM; parent: est. 1.0; read off a plot; remark: listed apart in the source
[6] = molecular target: OS9 (Osteosarcoma amplified 9), endogenous human (UniProt Q13438); assay: as above; details: SEL1L-/- HEK293T cells; n = 3; mean ± SEM; parent: est. 1.0; read off a plot; remark: listed apart in the source

Substance	response [3] [a.u.]	response [4] [a.u.]	response [6] [a.u.]	further results
HRD1 (HMG-CoA reductase degradation 1), endogenous human (from UniProt Q86TM6-3 1-616) (enzyme)				fold increase against SEL1L S658P [1]: 2 fold
HRD1, endogenous mouse (liver) (from UniProt Q9DBY1 1-612) (enzyme)				fold reduction against WT and HET livers [2]: 5 fold
mouse SEL1L (WT)-FLAG (from UniProt Q9Z2G6-1) S658P; F668A	0.11	0.97		
mouse SEL1L (WT)-FLAG (from UniProt Q9Z2G6-1) S658P; F668Y			0.95	

Now from value to substance, other results behind:

response [3] [a.u.]	response [4] [a.u.]	response [6] [a.u.]	Substance	further results
0.07	1		mouse SEL1L (WT)-FLAG (from UniProt Q9Z2G6-1) F668A	
		1	mouse SEL1L (WT)-FLAG (from UniProt Q9Z2G6-1) F668Y	response [5]: 0.9 a.u.
0.15	1	0.95	mouse SEL1L (WT)-FLAG (from UniProt Q9Z2G6-1) S658P	response [5]: 0.17 a.u.
